One molecule from article doi:10.1101/2023.08.08.552478 (bioRxiv, 2023) can be followed below.

As a reminder, the Kd is the free concentration of one partner at which half of the binding sites on the other are occupied at equilibrium, for simple one-to-one binding. Read a low Kd as a tighter complex.

This assay addresses PEX5 TPR domain (C-terminal cargo-binding TPR domain of human PEX5L) (human, UniProt P50542-1 315-639). The experiment in a line: fluorescence polarisation. In general terms: Polarisation of emitted light reports the rotation of a fluorescent probe.

Primed or numbered codes have the meaning given here. No end group written: not given here. FITC′ = fluorescein isothiocyanate

In the case of {FITC′}-SAPKIPSWQIPVKSPSPS [N-terminal FITC conjugated SAPKIPSWQIPVKSPSPS PEX14 peptide], the affinity, expressed as Kd, was 250 µM.
